The source of these data is JP2014141434A (dated 2014).

Assay [1] has as its target T1, N末端FLAG−tag付加型ヒトROBO4細胞外領域ドメイン欠損体 hROBO4−341 (human, UniProt Q8WZ75 341-1007).
T1 construct: On HEK293 cells; also called pCI−FLAG−hROBO4−341; pCI−hROBO4−341
T1 sequence: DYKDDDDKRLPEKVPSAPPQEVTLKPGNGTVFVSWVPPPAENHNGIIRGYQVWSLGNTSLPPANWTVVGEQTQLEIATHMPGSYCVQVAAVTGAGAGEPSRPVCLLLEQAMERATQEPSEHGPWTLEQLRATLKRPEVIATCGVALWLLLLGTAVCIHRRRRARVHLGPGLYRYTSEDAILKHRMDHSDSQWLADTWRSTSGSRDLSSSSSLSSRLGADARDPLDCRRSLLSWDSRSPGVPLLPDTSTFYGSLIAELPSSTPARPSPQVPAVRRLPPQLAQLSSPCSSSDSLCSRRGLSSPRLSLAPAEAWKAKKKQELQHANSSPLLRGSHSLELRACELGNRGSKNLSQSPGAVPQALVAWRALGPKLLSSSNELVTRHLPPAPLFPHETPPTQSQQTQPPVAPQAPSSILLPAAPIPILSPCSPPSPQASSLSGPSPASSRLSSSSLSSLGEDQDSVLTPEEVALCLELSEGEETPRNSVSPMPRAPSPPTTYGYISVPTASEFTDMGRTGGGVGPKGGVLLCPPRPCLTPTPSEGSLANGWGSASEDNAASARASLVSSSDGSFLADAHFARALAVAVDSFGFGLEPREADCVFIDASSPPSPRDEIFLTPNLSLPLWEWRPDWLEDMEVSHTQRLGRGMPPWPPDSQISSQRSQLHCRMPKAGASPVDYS
Briefly: flow cytometry, transfected HEK293 cells. (In general: Flow cytometry measures light scatter and fluorescence of single cells or particles in a stream.)

Assay [2] deals with T2, N末端FLAG−tag付加型ヒトROBO4細胞外領域ドメイン欠損体 hROBO4−225 (human, UniProt Q8WZ75 225-1007).
T2 construct: On HEK293 cells; also called pCI−FLAG−hROBO4−225; pCI−hROBO4−225
T2 sequence: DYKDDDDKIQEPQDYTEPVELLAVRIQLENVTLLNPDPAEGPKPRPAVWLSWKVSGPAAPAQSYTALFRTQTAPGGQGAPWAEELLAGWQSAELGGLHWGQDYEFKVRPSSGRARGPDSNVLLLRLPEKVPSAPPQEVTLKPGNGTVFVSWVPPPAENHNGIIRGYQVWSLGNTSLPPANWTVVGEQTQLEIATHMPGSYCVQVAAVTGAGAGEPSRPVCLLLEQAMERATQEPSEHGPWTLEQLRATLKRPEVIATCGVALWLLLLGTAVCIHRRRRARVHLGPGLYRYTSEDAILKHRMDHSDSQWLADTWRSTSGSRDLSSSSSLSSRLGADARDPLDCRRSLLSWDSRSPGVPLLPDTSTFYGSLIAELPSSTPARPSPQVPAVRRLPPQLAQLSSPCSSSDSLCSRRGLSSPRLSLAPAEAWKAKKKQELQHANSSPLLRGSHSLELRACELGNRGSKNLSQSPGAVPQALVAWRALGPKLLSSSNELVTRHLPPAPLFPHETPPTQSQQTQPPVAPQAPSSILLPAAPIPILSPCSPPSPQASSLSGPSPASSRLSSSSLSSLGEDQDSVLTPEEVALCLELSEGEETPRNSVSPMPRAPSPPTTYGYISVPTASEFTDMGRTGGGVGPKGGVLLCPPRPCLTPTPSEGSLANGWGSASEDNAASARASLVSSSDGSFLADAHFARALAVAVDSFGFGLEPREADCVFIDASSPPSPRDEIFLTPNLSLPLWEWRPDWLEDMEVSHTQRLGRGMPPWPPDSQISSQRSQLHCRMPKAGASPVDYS
The experiment in a line: flow cytometry, transfected HEK293 cells.

B1: 抗ROBO4マウスモノクローナル抗体 MAb1 (antibody, V domains shown)
VH: EVQLVESGGGLVKPGGSLKLSCAASGFTFSTYAMSWVRQTPEKRLEWVATISNGGTYTYYPDSVKGRFTISRDNAENTLYLQMSSLRSEDTAMYFCARLIYYDYLDYWGHGTTLTVSS
VL: DAVMTQTPLSLPVSLGDQASISCRSSQSLENSNGNTYLNWYFQKPGQSPQLLIYRVSNRFSGVLDRFSGSGSGTDFTLKISRVEAEDFGVYFCLQVTHVPWTFGGGTKLEIKR
notes: Mouse IgG1 (gamma 1) / kappa from a hybridoma; The constant regions are not in the listing; also called MAb1
In the case of B1, the binding result in assay [1] and in assay [2] was “no binding (tested: 10 μg/mL)” each time.
